Molecular target: human NaV1.8 alpha-subunit (human, UniProt Q9Y5Y9 1-1956, M1713V)
Assay: cryo-EM structure

Binder: ECRYWLGGCSAGQTCCKHLVCSRRHGWCVWDGTFS [Protoxin-I]
- binding result: binds

Source: publication PMC11383277 (bioRxiv, 2024)
